Patent US12371675B2, “Process and microorganism for synthesis of adipic acid from carboxylic acids” (THE GOVERNING COUNCIL OF THE UNIVERSITY OF TORONTO, priority 2015, dated 2025)
“And” between values parts separate entries of the source, which are not always exact repeats. Equal entries are not always repeated.

Key:
[1] = In vitro reductase activity of purified EREDs, NADH oxidation at 340 nm; assay type: biochemical; conditions: for activity against 2-hexenedioic acid: purified enzyme, anaerobic, NADH, aqueous buffer
Protocol: (§1) The C═C reducing activity of EREDs was examined. Enzyme activity of purified EREDs was measured spectrophotometrically in 96-well plates by following incubation for 3-5 min at 30° C. in the anaerobic chamber as described in M. Buhler, H. Simon, Hoppe-Seyler's Zeitschrift fur Physiologische Chemie 1982, 363, 609-625. Buffers and reagents were degassed and sparged with Ar. Reaction mixture contained potassium phosphate (100 mM and pH 7.0), NADH (0.5 mM), indicated substrates, and proteins (0.1-50 μg) in a final volume of 200 μL. Enzyme reactions were monitored by following the decrease in absorbance at 340 nm (ε340 nm=6,220/M·cm) due to oxidation of NADH to NAD+.
(§2) For in vitro biochemical characterization, enzyme activities of purified EREDs were measured with 2-hexenedioic acid, cis-cis-muconic acid, trans-trans muconic acid, trans-cinnamic acid, trans-2-methyl-2-butenoic acid, trans-2-butenoic acid, acrolein, 2-cyclohexen-1-one, and 3-methyl-2-cyclohexenone. […] [Feng, J. et al. Discovery and Characterization of BlsE, a Radical S-Adenosyl-L-methionine Decarboxylase Involved in the Blasticidin S Biosynthetic Pathway. PLoS ONE 8 (2013)].
To increase the dissolved substrate concentration, 2-hexenedioic acid was dissolved in a reaction mixture containing […] (final concentration) isopropanol, and kinetic constants of EREDBC and EREDCA were determined.

[2] = as above; assay type: biochemical
Protocol: as §1, §2

[3] = Whole-cell biotransformation of muconic acid by E. coli expressing EREDs; assay type: cell-based; conditions: 0.7 mM, 24-hr incubation
Protocol: After a 24-hr incubation, no muconic acid or 2-hexenedioic acid were detected in the culture, and a 99% yield of adipic acid was obtained (FIGS. 8a, 8b, and 8c). […] The 3-hexenedioic acid-like compound appears to be an inefficient substrate for these EREDS. This is similar to the mutated 2,4-dienoyl-CoA reductases from E. coli, which catalyze hydrogenation of 2,4-dienoyl CoA into 3-enoyl CoA (Tu, X., Hubbard, P. A., Kim, J. J. P. & Schulz, H. Two distinct proton donors at the active site of Escherichia coli 2,4-dienoyl-CoA reductase are responsible for the formation of different products. Biochemistry 47, 1167-1175 (2008).).

[4] = Oxygen tolerance (residual activity) of purified EREDs on storage; assay type: physicochemical; conditions: for retained initial activity, storage in the absence of oxygen / retained initial activity, storage in the presence of air: three days; for retained initial activity, storage in the absence of oxygen: 4° C.
Protocol: Purified EREDs were placed in 5 mL glass tubes tightly capped with air-tight rubber stoppers. Anaerobic tubes were filled with anaerobic gas mixture (80% N2, 10% H2, and 10% CO2) and aerobic tubes were filled with atmospheric air. The tubes were kept on ice for a week and a small aliquots of EREDs (5 ul) were withdrawn by a syringe every day to measure residual activity in a reaction mixture containing 100 mM potassium phosphate buffer (pH 7.0), 0.5 mM NADH, indicated substrates (0.25 mM 2-hexenedioic acid for EREDBC and 0.75 mM cinnamic acid for EREDCA, and protein (1 μg) in a final volume of 200 μL.

[5] = CAR reductase activity, NADPH oxidation at 340 nm; assay type: biochemical; conditions: ND = no activity was detected
Protocol: Reductase activity was measured spectrophotometrically by following the oxidation of NADPH depletion at 340 nm.
It has been shown that the N. iowensis CAR has a broad substrate range, though its maximal activity was usually observed with aromatic substrates such as benzoic and cinnamic acids. CARs gene sequences homologues to the N. iowensis CAR (Uniprot number: Q6RKB1), were selected from GenBank database. Based on presence of adenylation (AMP-binding PF00501) and reduction (NAD-binding PF07993) domains accompanied with phosphopantetheinyl binding motif (PF00530) 13 CAR genes (mostly from Mycobacterium) were cloned and expressed in E. coli. (Table 4). As CAR activation enzymes, phosphopantetheinyl transferases (PPTs) from E. coli (P19925) and Bacillus subtilis (P39135), were used which were co-expressed with the selected CAR genes from a separate plasmid. Using 1-liter E. coli cultures with overnight induction by IPTG, 12 soluble CAR proteins were purified using affinity chromatography on a Ni-NTA resin.

[6] = In vitro biotransformation by CARs coupled with aldehyde reductase PP_3370; assay type: biochemical; conditions: Table 12 title: 10 mM 4-hydroxybutyric acid (12 h) in vitro, CARs coupled with PP3370
[7] = In vivo whole cell biotransformation by E. coli expressing CARs; assay type: cell-based; conditions: 24 h
Protocol: E. coli cells expressing recombinant CARs with BSU03570 phosphopantetheinyl transferase were grown on LB media with […], supplemented with 2% glycerol aerobically on 37° C., until the culture optical density (OD 600 nm) reached 0.6-0.8. At this point protein expression was induced with 0.4 mM IPTG and substrate (adipic acid or 4-hydroxybutyric acid) for final 10 mM concentration was added. Samples were taken at 6 h, 24 h and 48 h, centrifuged, supernatant was filtered through 10 kDa centrifugal filters. Products were analyzed with HPLC or LC-MS. Negative control experiments were performed using E. coli cells harboring empty plasmids. All results of in vivo experiments are means from at least two independent determinations.

[8] = In vitro biotransformation by CARs coupled with aldehyde reductase PP_3370; assay type: biochemical; conditions: Table 12 title: 10 mM adipic acid (12 h) in vitro, CARs coupled with PP3370
[9] = purified enzyme, anaerobic, NADH

B1: EREDCA: 2-enoate reductase (ERED) from Clostridium acetobutylicum DSM 1731 (protein)
chain: MNKYKKLFEPIKIGKCEIKNRFALAPMGPLGLADSEGGFNQRGIDYYTERAKGGTGLIITGVTFVDNEVEEHGMPNCPCPTHNPVQFVRTGREMTERIHAYNSKVFLQMSGGFGRVTIPTNLGEFPPVAPSPIQHRWLDKTCRELTVDEIKSIVKKFGEGAFNAKRAGFDGVQIHAVHEGYLIDQFAISLFNHRTDEYGGSLENRLRFAREIVEEIKNRCGEDFPVTLRYSPKSFIKDLRDGALPGEEFVEKGRDLDEGVEAAKLLVSYGYDALDTDVGSYDSWWWSHPPMYQEKGLYRKYAKLMKDTVDVPVICAGRMDDPDMALEAVENGTCDVISLGRPLLADPDYVNKLRSNKCKSIRPCISCQEGCMGRVQHYSMLNCAVNPQACKERANSLTPIIKSKKVLIVGGGVAGCEAARVLALRGHEPVLYEKSNRLGGNLIPGGAPSFKEDDIALADWYTNTLKELNVEVNLNSEVTKEQILNSKFDTVIVATGSTPKVFPLGDDEKVFTAAEVLLGQKDPGETTVVVGGGLVGCELALDLAKKGKKVTIVEALNKILALNGPLCSANSEMLQKLIPFNGIDVKANSKVKGYKNGLLKMETENGIEELPCDSVILSVGYKEENSLYKELEFEIPEIYLLGDARKVSNIMYGIWDAFEVANHI
[1]
  activity against 2-hexenedioic acid: up to 0.05 U/mg protein
[2]; [9]
  activity against trans-2-butenoic acid: 0.008 U/mg protein
  activity against trans-cinnamic acid: 3.5 U/mg protein
[3]
  yield of adipic acid from cis,cis-muconic acid: 99%
  yield of adipic acid from trans,trans-muconic acid: 99%
[4]; one day, air (21% oxygen)
  residual activity, storage in the presence of air: 30%
[4]
  retained initial activity, storage in the absence of oxygen: 19%
[4]; air (21% oxygen)
  retained initial activity, storage in the presence of air: completely inactivated

B2: MSMEG_5739: carboxylate reductase (CAR) from M. smegmatis ATCC 700084 (protein)
chain: MTSDVHDATDGVTETALDDEQSTRRIAELYATDPEFAAAAPLPAVVDAAHKPGLRLAEILQTLFTGYGDRPALGYRARELATDEGGRTVTRLLPRFDTLTYAQVWSRVQAVAAALRHNFAQPIYPGDAVATIGFASPDYLTLDLVCAYLGLVSVPLQHNAPVSRLAPILAEVEPRILTVSAEYLDLAVESVRDVNSVSQLVVFDHHPEVDDHRDALARAREQLAGKGIAVTTLDAIADEGAGLPAEPIYTADHDQRLAMILYTSGSTGAPKGAMYTEAMVARLWTMSFITGDPTPVINVNFMPLNHLGGRIPISTAVQNGGTSYFVPESDMSTLFEDLALVRPTELGLVPRVADMLYQHHLATVDRLVTQGADELTAEKQAGAELREQVLGGRVITGFVSTAPLAAEMRAFLDITLGAHIVDGYGLTETGAVTRDGVIVRPPVIDYKLIDVPELGYFSTDKPYPRGELLVRSQTLTPGYYKRPEVTASVFDRDGYYHTGDVMAETAPDHLVYVDRRNNVLKLAQGEFVAVANLEAVFSGAALVRQIFVYGNSERSFLLAVVVPTPEALEQYDPAALKAALADSLQRTARDAELQSYEVPADFIVETEPFSAANGLLSGVGKLLRPNLKDRYGQRLEQMYADIAATQANQLRELRRAAATQPVIDTLTQAAATILGTGSEVASDAHFTDLGGDSLSALTLSNLLSDFFGFEVPVGTIVNPATNLAQLAQHIEAQRTAGDRRPSFTTVHGADATEIRASELTLDKFIDAETLRAAPGLPKVTTEPRTVLLSGANGWLGRFLTLQWLERLAPVGGTLITIVRGRDDAAARARLTQAYDTDPELSRRFAELADRHLRVVAGDIGDPNLGLTPEIWHRLAAEVDLVVHPAALVNHVLPYRQLFGPNVVGTAEVIKLALTERIKPVTYLSTVSVAMGIPDFEEDGDIRTVSPVRPLDGGYANGYGNSKWAGEVLLREAHDLCGLPVATFRSDMILAHPRYRGQVNVPDMFTRLLLSLLITGVAPRSFYIGDGERPRAHYPGLTVDFVAEAVTTLGAQQREGYVSYDVMNPHDDGISLDVFVDWLIRAGHPIDRVDDYDDWVRRFETALTALPEKRRAQTVLPLLHAFRAPQAPLRGAPEPTEVFHAAVRTAKVGPGDIPHLDEALIDKYIRDLREFGLI
[5]
  Activity [U/mg protein] 4-hydroxybutyric acid, 5 mM: 0.032 ± 0.024 U/mg protein
  Activity [U/mg protein] adipic acid, 5 mM: 0.054 ± 0.004 U/mg protein
[6]
  In vivo conversion efficiency (%) to: 1,4-butanediol: 86.1 ± 5.2%
[7]; 10 mM 4-hydroxybutyric acid
  In vivo conversion efficiency (%) to: 1,4-butanediol: 86.1±5.2%
[7]; 10 mM adipic acid
  In vivo conversion efficiency (%) to: 1,6-hexanediol: 53.8±1.4% and 57.2 ± 0.6%
  In vivo conversion efficiency (%) to: 6-hydroxyhexanoic acid: 9.1% and 9.1 ± 0.7%
[8]
  In vitro conversion efficiency % to: 1,6-hexanediol: 57.2 ± 0.6%
  In vitro conversion efficiency % to: 6-hydroxyhexanoic acid: 9.1 ± 0.7%

B3: EREDBC: 2-enoate reductase (ERED) from Bacillus coagulans 36D1 (protein)
chain: MKYKKLFETVKIRNVELKNRYAMAPMGPLGLADAEGGFNQRGIEYYTARARGGTALIITGVTFVDNEVEEHGMPNVPCPTHNPVHFVRTSKEMTERIHAYDSKIFLQMSAGFGRVTIPTNLGEYPPVAPSPIPHRWLDKTCRELTVEEIHSIVRKFGDGAFNAKRAGFDGVQIHAVHEGYLLDQFAIAFFNKRTDAYGGPLENRLRFAREIVEEIKQRCGEDFPVTLRFSPKSFIKDWREGALPGEEFEEKGRDLDEGIEAAKLLVSYGYDALDVDVGSYDSWWWSHPPMYQKKGLYIPYARLVKEAVDVPVLCAGRMDNPDLALAALEDGACDIISLGRPLLADPDYVNKLRIGQVADIRPCLSCHEGCMGRIQEYSSLGCAVNPAACREKEAALTPALKKKRVLIAGGGVAGCEAARVLALRGHEPVIFEKSNRLGGNLIPGGAPDFKEDDLALVAWYEHTLERLGVEIHLNTALTKEEILAANVDAVLIATGSNPKILPLDGKNKVFTAEDVLLDKVDAGQHVVIVGGGLVGCELALNLAEKGKDVSLVEMQDKLLAVNGPLCHANSDMLERLVPFKGVQVYTSSKIVDTTEKTAVVDVDGELREIEADSIVLAVGYSAEKSLYEDLKFEVADLHVVGDARKVANIMYAIWDAYEVAANL
[1]; 29 mM, dissolved in aqueous buffer
  Activity [U/mg protein] 2-Hexenedioic acid [29 mM]: 0.09 ± 0.02 U/mg protein
[1]; 35 mM, dissolved in 0.25 mM isopropanol
  Activity [U/mg protein] 2-Hexenedioic acid [35 mM]: 2.3 ± 0.04 U/mg protein
[1]
  activity against 2-hexenedioic acid: 0.09 U/mg protein
[2]; 1.0 mM, titrated with 1N NaOH
  Activity [U/mg protein] trans-Cinnamic acid [1.0 mM]: 0.39 ± 0.001 U/mg protein
[2]; 15 mM
  Activity [U/mg protein] Acrolein [15 mM]: 0.036 ± 0.005 U/mg protein
[2]; 50 mM
  Activity [U/mg protein] trans-2-Butenoic acid [50 mM]: 0.037 ± 0.010 U/mg protein
[2]; 200 mM
  Activity [U/mg protein] 2-Cyclohexen-1-one [200 mM]: 0.08 ± 0.03 U/mg protein
  Activity [U/mg protein] 3-Methyl-2-cyclohexenone [200 mM]: 0.13 ± 0.03 U/mg protein
[2]; [9]
  activity against 2-cyclohexen-1-one: 0.08 U/mg protein
  activity against 3-methyl-2-cyclohexenone: 0.13 U/mg protein
  activity against acrolein: 0.037 U/mg protein
  activity against trans-2-butenoic acid: 0.036 U/mg protein
  activity against trans-cinnamic acid: 0.39 U/mg protein
[3]
  yield of adipic acid from cis,cis-muconic acid: 99%
  yield of adipic acid from trans,trans-muconic acid: 99%
[4]
  retained initial activity, storage in the absence of oxygen: 35%
[4]; air (21% oxygen)
  retained initial activity, storage in the presence of air: 33%
